# Test results from doi:10.1101/2023.09.17.558134 (bioRxiv, 2023).
# B1: CedA (purified recombinant) (natural protein)
# chain: MKKPLRQQNRQIISYVPRTEPAPPEHAIKMDSFRDVWMLRGKYVAFVLMGESFLRSPAFTVPESAQRWANQIRQEGEVTE
# Assays:
# σ70 (purified) = σ70 (purified) (E. coli, UniProt P00579 1-613); assay: cryo-EM structure
# [1] = target: RNA polymerase β subunit (in the purified holoenzyme) (E. coli, UniProt P0A8V2 1-1342); assay: cryo-EM structure
# RNA polymerase β subunit (in the purified holoenzyme), sequence (P0A8V2 whole entry): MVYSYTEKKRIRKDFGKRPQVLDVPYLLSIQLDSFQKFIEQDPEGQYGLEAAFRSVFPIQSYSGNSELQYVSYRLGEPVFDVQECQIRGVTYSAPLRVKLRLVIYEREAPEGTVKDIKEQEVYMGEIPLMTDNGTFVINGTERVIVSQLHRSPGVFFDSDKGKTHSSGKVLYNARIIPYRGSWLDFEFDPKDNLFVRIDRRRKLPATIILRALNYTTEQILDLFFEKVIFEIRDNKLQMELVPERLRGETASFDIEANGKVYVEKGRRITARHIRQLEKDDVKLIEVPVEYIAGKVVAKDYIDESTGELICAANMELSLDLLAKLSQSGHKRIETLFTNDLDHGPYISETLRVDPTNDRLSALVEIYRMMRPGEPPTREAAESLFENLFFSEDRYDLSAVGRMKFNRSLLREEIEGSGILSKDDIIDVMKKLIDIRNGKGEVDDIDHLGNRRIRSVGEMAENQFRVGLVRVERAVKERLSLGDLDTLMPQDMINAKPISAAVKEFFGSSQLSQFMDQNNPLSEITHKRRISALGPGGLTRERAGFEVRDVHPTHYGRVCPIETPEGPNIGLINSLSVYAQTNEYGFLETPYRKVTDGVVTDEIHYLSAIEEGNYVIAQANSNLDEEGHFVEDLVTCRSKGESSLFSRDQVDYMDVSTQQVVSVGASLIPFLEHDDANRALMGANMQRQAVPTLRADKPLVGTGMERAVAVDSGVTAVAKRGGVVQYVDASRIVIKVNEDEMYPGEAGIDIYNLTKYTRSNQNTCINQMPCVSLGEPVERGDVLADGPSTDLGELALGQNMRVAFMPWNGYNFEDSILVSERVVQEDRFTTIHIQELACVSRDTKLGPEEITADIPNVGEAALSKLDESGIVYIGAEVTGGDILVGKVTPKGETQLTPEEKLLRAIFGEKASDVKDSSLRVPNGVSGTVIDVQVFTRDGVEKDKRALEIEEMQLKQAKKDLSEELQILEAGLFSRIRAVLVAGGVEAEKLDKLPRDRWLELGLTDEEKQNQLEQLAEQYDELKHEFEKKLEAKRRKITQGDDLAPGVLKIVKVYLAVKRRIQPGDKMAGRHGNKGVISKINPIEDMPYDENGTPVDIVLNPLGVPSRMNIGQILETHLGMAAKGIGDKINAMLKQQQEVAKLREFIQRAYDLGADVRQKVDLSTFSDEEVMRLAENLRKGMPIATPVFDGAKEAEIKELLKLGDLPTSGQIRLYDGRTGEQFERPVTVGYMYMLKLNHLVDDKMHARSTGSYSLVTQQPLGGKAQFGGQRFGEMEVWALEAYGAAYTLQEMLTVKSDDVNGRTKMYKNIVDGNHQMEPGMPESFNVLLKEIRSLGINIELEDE
# σ70 (purified), sequence (P00579 whole entry): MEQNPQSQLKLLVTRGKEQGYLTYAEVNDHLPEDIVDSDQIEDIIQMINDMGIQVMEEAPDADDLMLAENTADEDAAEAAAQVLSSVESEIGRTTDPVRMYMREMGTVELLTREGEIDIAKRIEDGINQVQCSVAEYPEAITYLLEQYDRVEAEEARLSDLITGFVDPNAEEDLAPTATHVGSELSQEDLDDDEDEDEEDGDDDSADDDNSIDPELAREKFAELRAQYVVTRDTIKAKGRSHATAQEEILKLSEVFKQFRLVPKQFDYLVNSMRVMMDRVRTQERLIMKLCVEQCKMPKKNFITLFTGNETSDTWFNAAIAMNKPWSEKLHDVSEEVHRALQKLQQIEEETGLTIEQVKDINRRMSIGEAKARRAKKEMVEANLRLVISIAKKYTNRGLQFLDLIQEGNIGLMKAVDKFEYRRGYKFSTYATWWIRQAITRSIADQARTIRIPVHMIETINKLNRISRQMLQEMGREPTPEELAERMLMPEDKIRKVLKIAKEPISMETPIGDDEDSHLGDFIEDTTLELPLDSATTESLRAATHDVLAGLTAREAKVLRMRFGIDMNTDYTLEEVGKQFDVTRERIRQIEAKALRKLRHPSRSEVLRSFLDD
binder,measurement,setting,value
B1,binding result,σ70 (purified),binds
same,binding result,[1],binds
